Patent US20200397816A1, “METHODS TO TREAT INFLAMMATORY AND SMOOTH MUSCLE CELL PROLIFERATION DISORDERS” (THE TRUSTEES OF INDIANA UNIVERSITY, priority 2019, published 2020)
Entries after “also recorded” stand apart in the source; their conditions may differ.

Columns and labels:
SphK1 [1] = assay: SphK1 protein western blot in RAW 264.7 macrophages; type: cell-based, mouse
Method: (§1) RAW 264.7 (ATCC) mouse macrophages and Human Embryonic Kidney (HEK) 293T cells were cultured in DMEM media with 10% fetal bovine serum […] and glutamine HEPES buffer and beta-mercaptoethanol were added to the growth medium used for RAW 264.7 macrophages. […]
(§2) After appropriate treatments, protein lysates were prepared by using RIPA buffer supplemented with phosphatase and protease inhibitors (Thermo Fischer Scientific). […] Western blots were performed according to standard methods and quantified using densitometry using Image Studio Lite software from LI-COR Biosciences. […]
(§3) After appropriate treatments, protein lysates were prepared by using RIPA buffer supplemented with phosphatase and protease inhibitors (Thermo Fisher Scientific). […] Western blots were performed according to standard methods and quantified using densitometry using Image Studio Lite software from LI-COR Biosciences.

Cyclin D1 = Cyclin D1 western blot in hPASMC; type: cell-based, human; conditions: SMCs; 48 hours of EMAP II stimulation
Method: as §1, §2, §3

SphK1 [2] = assay: SphK1 protein western blot in hPASMC; type: cell-based, human; conditions: SMCs; EMAP II 6 hours
Method: as §1, §2
as §3, with “Biosciences. […]” for “Biosciences.”

SphK1 [3] = assay: SphK1 transcripts qRT-PCR in RAW 264.7 macrophages; type: cell-based, mouse
Method: as §1
(§4) Total RNA was extracted with TriZol using standard RNA extraction protocol and reverse transcribed with SuperScript III Reverse Transcriptase (Thermo Fischer Scientific). SphK1, Tnf, Il6, EGR1, Gapdh, Hprt1 transcripts were quantified using PrimePCR SYBR Green assays from BioRad. […]
(§5) Total RNA was extracted with TriZol using standard RNA extraction protocol and reverse transcribed with SuperScript III Reverse Transcriptase (Thermo Fisher Scientific). SPHK1, Tnf, Il6, EGR1, Gapdh, Hprt1 transcripts were quantified using PrimePCR SYBR Green assays from BioRad.

S1P = assay: S1P, sphingosine and ceramides by HPLC/MS/MS in RAW 264.7 macrophages; type: cell-based, mouse; conditions: EMAP II 0-24 hours
Method: (§6) RAW 264.7 (ATCC) mouse macrophages and Human Embryonic Kidney (HEK) 293T cells were cultured in DMEM media with 10% fetal bovine serum […] and glutamine HEPES buffer and beta-mercaptoethanol were added to the growth medium used for RAW 264.7 macrophages. Primary human pulmonary artery smooth muscle cells (hPASMC) purchased from Lonza (Walkersville, Md.) were cultured in complete growth medium containing smooth muscle growth media-2 (SmGM-2) with 10% FBS and growth factors provided as a kit by the supplier (Lonza, (Walkersville, Md.). THP-1 human monocyte cells were cultured in RPMI 1640 with 10% FBS and glutamine Cells were cultured in a humidified atmosphere with 5% CO2 at 370 C. For all studies passages 5-14 were used for RAW 264.7 and passages 5-10 were used for hPASMCs. For treatment studies, subconfluent cells plated in multi-well plates were serum starved and if required, pretreated for with inhibitors before stimulating with 2 μg/mL recombinant EMAP II.
Collected cells were rinsed with PBS, pelleted and frozen at minus 80° Celsius. […] Sphingolipids are normalized to inorganic phosphate levels determined from the Bligh & Dyer lipid extraction method. […]
Collected cells were rinsed with PBS, pelleted. […] Sphingolipids were normalized to inorganic phosphate levels in PASMC which was determined from the Bligh & Dyer lipid extraction method. […]

pSTAT3 = pSTAT3 levels in SMCs (data not shown); type: cell-based, human
EGR1 = EGR1 protein western blot (whole cell lysates, nuclear fractions) in RAW 264.7 macrophages; type: cell-based, mouse; conditions: macrophages
Method: as §6
(§7) After appropriate treatments, protein lysates were prepared by using RIPA buffer supplemented with phosphatase and protease inhibitors (Thermo Fischer Scientific). Alpha-tubulin was used as a loading control. For nuclear and cytoplasmic fractionation, NE-PER kit from Thermo Fischer Scientific was used. Western blots were performed according to standard methods and quantified using densitometry using Image Studio Lite software from LI-COR Biosciences.
RAW 264.7 (ATCC) mouse macrophages and HEK-293T (ATCC) cells were cultured in DMEM media with 10% (v/v) fetal bovine serum (FBS) and 2 mM glutamine HEPES buffer and beta-mercaptoethanol were added to the growth medium used for RAW 264.7 macrophages. Primary human pulmonary artery smooth muscle cells (hPASMC) purchased from Lonza (Walkersville, Md.) were cultured in complete growth medium containing smooth muscle growth media-2 (SmGM-2) with 10% FBS and growth factors provided as a kit by the supplier (Lonza, (Walkersville, Md.). THP-1 human monocyte cells were cultured in RPMI 1640 with 10% FBS and glutamine Cells were cultured in a humidified atmosphere with 5% CO2 at 37° C. For all studies passages 5-14 were used for RAW 264.7 and passages 5-10 were used for hPASMCs. For treatment studies, subconfluent cells plated in multi-well plates were serum starved and if required, pretreated with inhibitors before stimulation with 2 μg/mL recombinant EMAP II.
as §3, with “Scientific). Alpha-tubulin was used as a loading control.” for “Scientific).”

Tnf [4] = assay: Tnf transcripts qRT-PCR in RAW 264.7 macrophages; type: cell-based, mouse; conditions: EMAP II time course
Method: as §1, §4, §5

pERK1/2 [5] = assay: pERK1/2 western blot time course in RAW 264.7 macrophages; type: cell-based, mouse
Method: as §6, §7
(§8) RAW 264.7 (ATCC) mouse macrophages and HEK-293T (ATCC) cells were cultured in DMEM media with 10% (v/v) fetal bovine serum (FBS) and 2 mM glutamine HEPES buffer and beta-mercaptoethanol were added to the growth medium used for RAW 264.7 macrophages. […]
as §3

pERK1/2 [6] = assay: pERK1/2 western blot time course in hPASMC; type: cell-based, human; conditions: SMCs
Method: as §6, §7, §8, §3

TNF [7] = assay: TNF in SMCs (data not shown); type: cell-based, human

B1: EMAP II: 6x-His tagged recombinant EMAP II, cleaved C-terminal peptide of AIMP1 (SEQ ID NO: 2), pro-inflammatory cytokine (protein)
chain: IAGSADSKPIDVSRLDLRIGCIITARKHPDADSLYVEEVDVGEIAPRTVVSGLVNHVPLEQMQNRMVILLCNLKPAKMRGVLSQAMVMCASSPEKIEILAPPNGSVPGDRITFDAFPGEPDKELNPKKKIWEQIQPDLHTNDECVATYKGVPFEVKGKGVCRAQTMSNSGIK
- protein expression of SphK1 compared to control (SphK1 [1]; EMAP II treated macrophages): about 1.7 times
- SphK1 protein expression (SphK1 [1]; macrophages, EMAP II 6 hours): significant overexpression; also recorded: significantly increased
- cyclin D1 expression (Cyclin D1): modulates cyclin D1; also recorded: marked increase
- SphK1 protein expression (SphK1 [2]): significant overexpression; also recorded: significantly increased
- induction of SphK1 transcription compared to control (SphK1 [3]; EMAP II treated macrophages): about 4 times
- time of peak SphK1 transcription after EMAP II stimulation (SphK1 [3]; macrophages): 3 h
- cellular sphingosine and ceramide levels (S1P): bi-modal depreciation; also recorded: decreasing levels over time
- cellular S1P levels (S1P; normalized against inorganic phosphates): continuous elevation
- pSTAT3 levels / STAT3 activation (pSTAT3): does not impact; also recorded: no STAT3 activation
- EGR1 expression in whole cell lysates (EGR1; 1 to 2 hours following EMAP II): significant upregulation
- upregulation of nuclear expression of EGR1 (EGR1; EMAP II 2 μg/mL, at 2 hours): 9 fold
- Tnf transcription level (Tnf [4]): increased
- earliest time of pERK1/2 activation (pERK1/2 [5]): 5 minutes
- time of pERK1/2 peak (pERK1/2 [5]): 1 hour
- ERK1/2 phosphorylation (pERK1/2 normalized to ERK1/2) (pERK1/2 [5]; 24-hour time course): induced ERK1/2 phosphorylation; also recorded: bi-modal activation; also recorded: bimodal activation
- earliest time pERK1/2 reached significance (pERK1/2 [6]): 3 minutes
- time of pERK1/2 peak (pERK1/2 [6]): 3 minutes
- ERK1/2 phosphorylation (pERK1/2) (pERK1/2 [6]; 24-hour time course): bi-modal ERK1/2 activation; also recorded: induced pERK1/2
- TNF induction (TNF [7]): absent
